By stoichiometry N is commonly meant the number of molecules, sites or subunits per partner or assembly.

Data on one substance can be found in paper PMC6298231.

The target of the assay is Thrombospondin-1, full-length 185 kDa protein released by endothelial cells (human (endogenous in microvascular endothelial cells)) (UniProt P07996). The experiment in a line: non-reducing SDS-PAGE with immunoblot. For orientation: A western blot detects proteins with antibodies after separation by electrophoresis.

Turning to “Thrombospondin-1, full-length 185 kDa protein released by endothelial cells (from UniProt P07996 19-1170) (natural protein)”, the stoichiometry N turned out to be 3.
